This note sets out measurements from publication PMC3616741.

Like-named read-outs stand apart in the source and are kept apart here.

What all share (assay): SPR
In general terms: In SPR one partner is held on a chip, and binding of the other changes the refractive index at the surface.

The target in data set [1] is T1, U2AF65 1,2 (RRM1-RRM2, wild-type linker) (Homo sapiens, UniProt P26368 148-336).
The target of the next data set is U2AF65 1,2 MUT (Homo sapiens, UniProt P26368 148-336, D293N;K329Q;L331K;Q333E).
Data set [2] addresses T1, U2AF65 1,2 (RRM1-RRM2, wild-type linker). The source holds these as a separate data set.

T1 sequence (P26368 148-336, one chain of several): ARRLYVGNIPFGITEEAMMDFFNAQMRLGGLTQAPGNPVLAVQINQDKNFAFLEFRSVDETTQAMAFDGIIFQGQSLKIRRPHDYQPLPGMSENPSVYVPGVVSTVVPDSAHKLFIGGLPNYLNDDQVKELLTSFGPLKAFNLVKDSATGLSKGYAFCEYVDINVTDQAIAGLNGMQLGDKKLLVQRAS
Chain of U2AF65 1,2 MUT (P26368 148-336 D293N/K329Q/L331K/Q333E, one chain of several): as the sequence (P26368 148-336, one chain of several) above, with D146N, K182Q, L184K, Q186E counted along it

Turning to CCCUUUCUCCUCC (ssRNA) [rC(7,9,10)], the affinity in data set [1], expressed as Kd, was 11.6 ± 0.8 µM.
The same measure, in the same setting: under CCCUUUCUUUUCC (ssRNA) [rC(7)] stands 9.3 ± 0.4 µM; under CCCCCCCCUUUCC (ssRNA) [3'-3rU], 89.5 ± 3.9 µM.
Consider CCCCCUUCUCUCC (ssRNA) [rC(4,5,8,10)], for which the dissociation constant (Kd) (as a rule, the concentration at which binding is half-saturated) in data set [1] worked out at 27.9 ± 1.3 µM.
The same measure, in the same setting: next, CCCCCCUUUUUCC (ssRNA) [3'-5rU]: 45.2 ± 3.4 µM; UUUUUUUUUUUUU (ssRNA) [rU13]: 13.1 ± 0.9 µM.
On the same count and under the same terms, under CCCUUUUUUCUCC (ssRNA) [rC(10)] stands 11.9 ± 0.8 µM.
The same measure, in the same setting: next, CCUUUCCCCCCCC (ssRNA) [5'-3rU]: 22 ± 0.9 µM.
Consider CCUUUUCCCCCCC (ssRNA) [5'-4rU], for which the Kd is 14.3 ± 0.6 µM in data set [1] and 14 ± 1.6 µM with U2AF65 1,2 MUT.
Molecule CCUUUUUCCCCCC (ssRNA) [5'-5rU] yielded a dissociation constant (Kd) in data set [1] of 14.4 ± 0.8 µM.
The same measure, in the same setting: next, CCCUUUCUCUUCC (ssRNA) [rC(7,9)]: 11 ± 0.6 µM.
Same read-out and setting: next, CCCUUUUUCUUCC (ssRNA) [rC(9)]: 13.7 ± 1.3 µM; CCCUCUUUUUUCC (ssRNA) [rC(5)]: 13.9 ± 1 µM.
As for CCCCCCCUUUUCC (ssRNA) [3'-4rU], the Kd in data set [1] worked out at 69.4 ± 3.1 µM; in the data set with U2AF65 1,2 MUT, 12.5 ± 1.3 µM.
As for CCCUUUCUUCUCC (ssRNA) [rC(7,10)], binding in data set [1] was characterised by a dissociation constant (Kd) of 14.5 ± 0.9 µM.
In data set [2], CCCUUUUUUUUCC (ssRNA) [rAdML13] yielded a Kd of 12.5 ± 1.6 µM.
Consider CCUCUCUUCCCCC (ssRNA) [rU(3)C(4,6,9,10,11)], for which the Kd in data set [1] amounted to 14.4 ± 1.1 µM.
